Tested on: PI-SceI meganuclease
Assay: cell_activity
Conditions: mouse eggs, purified protein co-injected, DNA/protein 1:25; 3 of 10 embryos; indirect evidence of cleavage

PI-SceI sites in PIFFLago
activity (% transgenic embryos): 30

Source: US7098031
